Test results from publication PMC6333409, “Crystal structure of chloramphenicol-metabolizing enzyme EstDL136 from a metagenome” (PLoS ONE, 2019).

Test system: CC(=O)Oc1ccc([N+](=O)[O-])cc1
Test: purified protein
Assay type: biochemical, uncultured bacterium pDL136
Conditions: 50 mM Tris pH 8.0, 30°C, ~2 nM enzyme, value in parentheses is standard error

**Q.** “EstDL136 (wild-type full-length) (uncultured bacterium pDL136; L206A)” was tested. Which Km did it give?
**A.** Its Km is 0.40 (0.030) mM.

**Q.** And the kcat?
**A.** The kcat was 547 s⁻¹.

**Q.** What about the kcat/Km of the same substance?
**A.** Its kcat/Km is 1.4e+06 M⁻¹ s⁻¹.

**Q.** “EstDL136 (wild-type full-length) (uncultured bacterium pDL136; F214A)” was tested. Which Km did it give?
**A.** The Km was 0.55 (0.051) mM.

**Q.** What about the kcat of the same substance?
**A.** The kcat was 641 s⁻¹.

**Q.** What about the kcat/Km of the same substance?
**A.** Its kcat/Km is 1.2e+06 M⁻¹ s⁻¹.

**Q.** What does the source list for “EstDL136 (wild-type full-length) (uncultured bacterium pDL136)”?
**A.** Km: 0.14 (0.016) mM; kcat: 622 s⁻¹; kcat/Km: 4.4e+06 M⁻¹ s⁻¹
